Measurements published in patent US20220332804A1 (CSL INNOVATION, published 2022).
Substitutions are numbered along the chain they refer to.

Assays:
Assay in all cases: SPR; KD relative to WT C2;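 also: biacore SPR at 37 °C, anti-C2 mAbs captured on an anti-human IgG chip, alanine or serine C2 surface mutants tested, KD from 1:1 fit compared with wild-type C2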
human C2 E324A = molecular target: T1, human C2 E324A (human, UniProt P06681 21-752)
T1 sequence: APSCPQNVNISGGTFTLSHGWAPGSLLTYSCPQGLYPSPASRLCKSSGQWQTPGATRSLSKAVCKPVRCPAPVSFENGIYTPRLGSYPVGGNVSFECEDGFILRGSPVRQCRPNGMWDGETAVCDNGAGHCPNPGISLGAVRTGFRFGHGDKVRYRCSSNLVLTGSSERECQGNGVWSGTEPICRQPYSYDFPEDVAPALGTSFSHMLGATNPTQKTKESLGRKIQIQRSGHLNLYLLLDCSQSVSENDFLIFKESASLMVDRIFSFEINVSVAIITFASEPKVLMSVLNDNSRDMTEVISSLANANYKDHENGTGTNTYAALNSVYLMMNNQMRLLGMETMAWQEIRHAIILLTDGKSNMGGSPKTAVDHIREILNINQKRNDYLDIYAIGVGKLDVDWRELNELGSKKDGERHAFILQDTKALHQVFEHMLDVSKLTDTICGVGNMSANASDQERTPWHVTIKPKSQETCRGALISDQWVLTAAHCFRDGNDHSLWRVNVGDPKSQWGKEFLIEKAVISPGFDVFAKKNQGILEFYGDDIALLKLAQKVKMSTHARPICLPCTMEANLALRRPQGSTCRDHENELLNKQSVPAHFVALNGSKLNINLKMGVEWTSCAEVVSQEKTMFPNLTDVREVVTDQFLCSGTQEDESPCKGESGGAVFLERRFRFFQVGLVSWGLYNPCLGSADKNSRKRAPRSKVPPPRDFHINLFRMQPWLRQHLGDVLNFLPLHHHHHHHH
Protocol: (§1) Surface plasmon resonance (SPR, Biacore) was used for all binding affinity analyses. In brief, goat anti-human IgG was directly immobilised onto the carboxymethyl dextran surface of CM5 sensorchips to approximately 12,000 RU using standard NHS/EDC chemistry at pH 5. The immobilised antibody surface was pre-conditioned with ten injections of polyclonal human IgG (Privigen 60 s) prepared at 1 μg/mL. Ligands (anti-C2 mAbs) were captured at the beginning of each cycle as described below. An adjacent spot or flow cell in which only Polyclonal IgG was capture was used as a reference surface. The goat anti-human IgG Fc antibody surface was regenerate in 100 mM H3PO4, injected for 45 seconds at the end of each cycle. Experiments were performed at 37° C. and the flow rate of each experiment was kept constant at 30 μL/min.
(§2) Sensogram data was double-referenced against a reference anti-IgG surface (i.e. minus anti-C2 mAb) and blank buffer injections obtained within each experiment. The binding data was fit to 1:1 (kinetic or steady-state) model using local Rmax and null refraction index (RI=0) when appropriate. Buffers and solutions were filtered (0.22 μm) prior to use.
(§3) The C2 mutants were designed to test the importance of surface exposed residues for antibody binding. Residues located at either the N-terminal VWA domain or C-terminal protease domain of C were replaced by either alanine or serine and tested for binding against anti-C2 antibodies.

human C2 H451A = molecular target: T2, human C2 H451A (human, UniProt P06681 21-752)
T2 sequence: T1 sequence with A304E, H431A
Protocol: as §1, §2, §3

human complement C2 = molecular target: T3, human complement C2 (human, UniProt P06681 21-752)
T3 construct: Recombinant full-length human C2 with C-terminal 8x His tag, purified from Expi293F supernatant; also called human C2; huC2
T3 sequence: T1 sequence with A304E
Protocol: as §1, §2, §3

human C2 D441A = molecular target: T4, human C2 D441A (human, UniProt P06681 21-752)
T4 sequence: T1 sequence with A304E, D421A
Protocol: as §1, §2, §3

Fold diff (human C2 E324A): 1 fold
Fold diff (human C2 H451A): 4 fold
Fold diff (human complement C2): 1 fold
Fold diff (human C2 D441A): 2 fold
B1: RF16-214 (antibody, V domains shown)
VH: EVQLLESGGGLVQPGGSLRLSCAASGFTFSWYQMMWVRQAPGKGLEWVSRIYPSGGGTAYADSVKGRFTISRDNSKNTLYLQMNSLRAEDTAVYYCARDAGYGDNWGQGTLVTVSS
VL: QSALTQPPSVSVSPGQTASITCSGDKLGEKYASWYQQKAGQSPVMVIYQDRKRPSGIPERFSGSNSGNTATLTISGTQAMDEADYYCQAWDTRAVVFGGGTKLTVLG
